Laboratory results as given in article PMC4445065, “SOXE transcription factors form selective dimers on non-compact DNA motifs through multifaceted interactions between dimerization and high-mobility group domains”.

Legend:
[1] = molecular target: T1, SOX9-NHMG (UniProt Q04887 1-181); assay: EMSA; homodimer, cooperativity factor ~100 (about 10-fold diminished); EMSA: 10 mM Tris-HCl pH 8.0, 0.1 mg/ml BSA, 50 uM ZnCl2, 100 mM KCl, 10% glycerol, 0.1% Igepal CA630, 2 mM beta-mercaptoethanol, 50 nM DNA, 4 h at 4 C; CD: 50 mM phosphate pH 8.0, 4 h at 4 C; details: protein: recombinant; tags: His6 or His-MBP fusion, removed by TEV; chain copies: 2; label: Cy5 forward strand
T1 sequence (Q04887 1-181): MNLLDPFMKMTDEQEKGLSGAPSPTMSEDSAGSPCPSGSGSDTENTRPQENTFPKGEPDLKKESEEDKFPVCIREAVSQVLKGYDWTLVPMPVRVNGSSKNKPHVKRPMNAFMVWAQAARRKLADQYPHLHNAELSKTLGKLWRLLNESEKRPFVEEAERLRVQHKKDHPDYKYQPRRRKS

[2] = molecular target: T1, SOX9-NHMG; assay: EMSA; highly cooperative homodimer; EMSA: 10 mM Tris-HCl pH 8.0, 0.1 mg/ml BSA, 50 uM ZnCl2, 100 mM KCl, 10% glycerol, 0.1% Igepal CA630, 2 mM beta-mercaptoethanol, 50 nM DNA, 4 h at 4 C; CD: 50 mM phosphate pH 8.0, 4 h at 4 C; details: protein: recombinant; tags: His6 or His-MBP fusion, removed by TEV; chain copies: 2; label: Cy5 forward strand
[3] = molecular target: T1, SOX9-NHMG; assay: EMSA; highly cooperative homodimer; cooperativity factor denoted infinite; EMSA: 10 mM Tris-HCl pH 8.0, 0.1 mg/ml BSA, 50 uM ZnCl2, 100 mM KCl, 10% glycerol, 0.1% Igepal CA630, 2 mM beta-mercaptoethanol, 50 nM DNA, 4 h at 4 C; CD: 50 mM phosphate pH 8.0, 4 h at 4 C; details: protein: recombinant; tags: His6 or His-MBP fusion, removed by TEV; chain copies: 2; label: Cy5 forward strand
[4] = molecular target: SOX8-NHMG;SOX10-DHMG (;, UniProt Q04886;Q04888 1-175;61-180, |); assay: EMSA; heterodimer band; EMSA: 10 mM Tris-HCl pH 8.0, 0.1 mg/ml BSA, 50 uM ZnCl2, 100 mM KCl, 10% glycerol, 0.1% Igepal CA630, 2 mM beta-mercaptoethanol, 50 nM DNA, 4 h at 4 C; CD: 50 mM phosphate pH 8.0, 4 h at 4 C; details: protein: recombinant;recombinant, tags: His6 or His-MBP fusion, removed by TEV;His6 or His-MBP fusion, copies: 1;1, label: Cy5 forward strand
Chain of SOX8-NHMG;SOX10-DHMG (Q04886 1-175, chain 1 of 2): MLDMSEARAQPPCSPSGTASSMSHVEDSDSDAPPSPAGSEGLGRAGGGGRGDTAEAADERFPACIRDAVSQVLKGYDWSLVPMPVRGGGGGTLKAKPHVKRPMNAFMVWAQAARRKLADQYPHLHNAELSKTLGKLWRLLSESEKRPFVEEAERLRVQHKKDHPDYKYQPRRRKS
Chain of SOX8-NHMG;SOX10-DHMG (Q04888 61-180, chain 2 of 2): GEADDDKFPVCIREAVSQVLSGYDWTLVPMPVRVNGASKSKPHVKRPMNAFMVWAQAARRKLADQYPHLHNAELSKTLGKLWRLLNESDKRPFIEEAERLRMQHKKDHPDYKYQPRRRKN

[5] = molecular target: SOX9-DHMG;SOX8-NHMG (;, UniProt Q04887;Q04886 60-181;1-175, |); assay: as above; details: protein: recombinant;recombinant, tags: His6 or His-MBP fusion, removed by TEV;His6 or His-MBP fusion, copies: 1;1, label: Cy5 forward strand
Chain of SOX9-DHMG;SOX8-NHMG (Q04887 60-181, chain 1 of 2): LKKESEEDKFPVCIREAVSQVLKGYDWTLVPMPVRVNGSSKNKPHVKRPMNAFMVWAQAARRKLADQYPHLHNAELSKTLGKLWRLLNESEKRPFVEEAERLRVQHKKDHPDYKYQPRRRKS
Chain of SOX9-DHMG;SOX8-NHMG (Q04886 1-175, chain 2 of 2): as the sequence (Q04886 1-175, chain 1 of 2) above

[6] = molecular target: SOX9-NHMG;SOX10-DHMG (;, UniProt Q04887;Q04888 1-181;61-180, |); assay: as above; details: protein: recombinant;recombinant, tags: His6 or His-MBP fusion, removed by TEV;His6 or His-MBP fusion, copies: 1;1, label: Cy5 forward strand
Chain of SOX9-NHMG;SOX10-DHMG (Q04887 1-181, chain 1 of 2): as the sequence (Q04887 1-181) above
Chain of SOX9-NHMG;SOX10-DHMG (Q04887 other isoform, or with tags, fused parts or gaps |, chain 2 of 2): as the sequence (Q04888 61-180, chain 2 of 2) above

[7] = molecular target: SOX8-NHMG;SOX10-HMG (;, UniProt Q04886;Q04888 1-175;102-180, |); assay: EMSA; mixed dimer with single DIM; EMSA: 10 mM Tris-HCl pH 8.0, 0.1 mg/ml BSA, 50 uM ZnCl2, 100 mM KCl, 10% glycerol, 0.1% Igepal CA630, 2 mM beta-mercaptoethanol, 50 nM DNA, 4 h at 4 C; CD: 50 mM phosphate pH 8.0, 4 h at 4 C; details: protein: recombinant;recombinant; tags: His6 or His-MBP fusion, removed by TEV;N-terminal His6 (Methods, possibly only this construct); copies: 1;1; label: Cy5 forward strand
Chain of SOX8-NHMG;SOX10-HMG (Q04886 1-175, chain 1 of 2): as the sequence (Q04886 1-175, chain 1 of 2) above
Chain of SOX8-NHMG;SOX10-HMG (Q04886 other isoform, or with tags, fused parts or gaps |, chain 2 of 2): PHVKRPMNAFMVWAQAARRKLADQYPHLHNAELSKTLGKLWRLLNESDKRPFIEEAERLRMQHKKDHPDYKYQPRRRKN

[8] = molecular target: SOX8-NHMG;SOX9-HMG (;, UniProt Q04886;Q04887 1-175;103-181, |); assay: as above; details: protein: recombinant;recombinant; tags: His6 or His-MBP fusion, removed by TEV;; copies: 1;1; label: Cy5 forward strand
Chain of SOX8-NHMG;SOX9-HMG (Q04886 1-175, chain 1 of 2): as the sequence (Q04886 1-175, chain 1 of 2) above
Chain of SOX8-NHMG;SOX9-HMG (Q04886 97-175 S141N, chain 2 of 2): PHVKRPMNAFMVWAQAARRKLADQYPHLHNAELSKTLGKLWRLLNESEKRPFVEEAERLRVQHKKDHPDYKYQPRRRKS

[9] = molecular target: SOX8-NHMG;SOX8-HMG (;, UniProt Q04886;Q04886 1-175;97-175, |); assay: as above; details: protein: recombinant;recombinant; tags: His6 or His-MBP fusion, removed by TEV;; copies: 1;1; label: Cy5 forward strand
Chain of SOX8-NHMG;SOX8-HMG (Q04886 1-175, chain 1 of 2): as the sequence (Q04886 1-175, chain 1 of 2) above
Chain of SOX8-NHMG;SOX8-HMG (Q04886 97-175, chain 2 of 2): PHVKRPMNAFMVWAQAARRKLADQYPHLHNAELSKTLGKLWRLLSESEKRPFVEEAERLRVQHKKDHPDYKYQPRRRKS

[10] = molecular target: SOX10-DHMG;SOX10-HMG (;, UniProt Q04888;Q04888 61-180;102-180, |); assay: as above; details: protein: recombinant;recombinant; tags: His6 or His-MBP fusion, removed by TEV;N-terminal His6 (Methods, possibly only this construct); copies: 1;1; label: Cy5 forward strand
Chain of SOX10-DHMG;SOX10-HMG (Q04888 61-180, chain 1 of 2): as the sequence (Q04888 61-180, chain 2 of 2) above
Chain of SOX10-DHMG;SOX10-HMG (Q04888 102-180, chain 2 of 2): as the sequence (Q04886 other isoform, or with tags, fused parts or gaps |, chain 2 of 2) above

[11] = molecular target: SOX10-DHMG;SOX9-HMG (;, UniProt Q04888;Q04887 61-180;103-181, |); assay: as above; details: protein: recombinant;recombinant; tags: His6 or His-MBP fusion, removed by TEV;; copies: 1;1; label: Cy5 forward strand
Chain of SOX10-DHMG;SOX9-HMG (Q04888 61-180, chain 1 of 2): as the sequence (Q04888 61-180, chain 2 of 2) above
Chain of SOX10-DHMG;SOX9-HMG (Q04888 other isoform, or with tags, fused parts or gaps |, chain 2 of 2): as the sequence (Q04886 97-175 S141N, chain 2 of 2) above

[12] = molecular target: SOX10-DHMG;SOX8-HMG (;, UniProt Q04888;Q04886 61-180;97-175, |); assay: as above; details: protein: recombinant;recombinant; tags: His6 or His-MBP fusion, removed by TEV;; copies: 1;1; label: Cy5 forward strand
Chain of SOX10-DHMG;SOX8-HMG (Q04888 61-180, chain 1 of 2): as the sequence (Q04888 61-180, chain 2 of 2) above
Chain of SOX10-DHMG;SOX8-HMG (Q04888 other isoform, or with tags, fused parts or gaps |, chain 2 of 2): as the sequence (Q04886 97-175, chain 2 of 2) above

[13] = molecular target: SOX10-DHMG (UniProt Q04888 61-180); assay: EMSA; homodimer, as cooperative as SOX9-NHMG; EMSA: 10 mM Tris-HCl pH 8.0, 0.1 mg/ml BSA, 50 uM ZnCl2, 100 mM KCl, 10% glycerol, 0.1% Igepal CA630, 2 mM beta-mercaptoethanol, 50 nM DNA, 4 h at 4 C; CD: 50 mM phosphate pH 8.0, 4 h at 4 C; details: protein: recombinant; tags: His6 or His-MBP fusion, removed by TEV; chain copies: 2; label: Cy5 forward strand
Chain of SOX10-DHMG (Q04888 61-180): as the sequence (Q04888 61-180, chain 2 of 2) above

[14] = molecular target: SOX8-NHMG (UniProt Q04886 1-175); assay: as above; details: protein: recombinant; tags: His6 or His-MBP fusion, removed by TEV; chain copies: 2; label: Cy5 forward strand
Chain of SOX8-NHMG (Q04886 1-175): as the sequence (Q04886 1-175, chain 1 of 2) above

[15] = molecular target: SOX9-NHMG;SOX8-HMG (;, UniProt Q04887;Q04886 1-181;97-175, |); assay: EMSA; heterodimer more prominent than SOX9-NHMG homodimer; EMSA: 10 mM Tris-HCl pH 8.0, 0.1 mg/ml BSA, 50 uM ZnCl2, 100 mM KCl, 10% glycerol, 0.1% Igepal CA630, 2 mM beta-mercaptoethanol, 50 nM DNA, 4 h at 4 C; CD: 50 mM phosphate pH 8.0, 4 h at 4 C; details: protein: recombinant;recombinant; tags: His6 or His-MBP fusion, removed by TEV;; copies: 1;1; label: Cy5 forward strand
Chain of SOX9-NHMG;SOX8-HMG (Q04887 1-181, chain 1 of 2): as the sequence (Q04887 1-181) above
Chain of SOX9-NHMG;SOX8-HMG (Q04887 103-181 N147S, chain 2 of 2): as the sequence (Q04886 97-175, chain 2 of 2) above

[16] = molecular target: SOX9-NHMG;SOX10-HMG (;, UniProt Q04887;Q04888 1-181;102-180, |); assay: as above; details: protein: recombinant;recombinant; tags: His6 or His-MBP fusion, removed by TEV;N-terminal His6 (Methods, possibly only this construct); copies: 1;1; label: Cy5 forward strand
Chain of SOX9-NHMG;SOX10-HMG (Q04887 1-181, chain 1 of 2): as the sequence (Q04887 1-181) above
Chain of SOX9-NHMG;SOX10-HMG (Q04887 other isoform, or with tags, fused parts or gaps |, chain 2 of 2): as the sequence (Q04886 other isoform, or with tags, fused parts or gaps |, chain 2 of 2) above

[17] = molecular target: SOX9-NHMG;SOX9-HMG (;, UniProt Q04887;Q04887 1-181;103-181, |); assay: EMSA; mixed dimer more prominent than SOX9-NHMG homodimer; EMSA: 10 mM Tris-HCl pH 8.0, 0.1 mg/ml BSA, 50 uM ZnCl2, 100 mM KCl, 10% glycerol, 0.1% Igepal CA630, 2 mM beta-mercaptoethanol, 50 nM DNA, 4 h at 4 C; CD: 50 mM phosphate pH 8.0, 4 h at 4 C; details: protein: recombinant;recombinant; tags: His6 or His-MBP fusion, removed by TEV;; copies: 1;1; label: Cy5 forward strand
Chain of SOX9-NHMG;SOX9-HMG (Q04887 1-181, chain 1 of 2): as the sequence (Q04887 1-181) above
Chain of SOX9-NHMG;SOX9-HMG (Q04887 103-181, chain 2 of 2): as the sequence (Q04886 97-175 S141N, chain 2 of 2) above

Measured: binding result

B1: 6 bp spacer SOX dimer probe (dsDNA)
DNA 1: CCGAAAACAAAGGATTACCTTTGTTTTGCC
DNA 2: GGCAAAACAAAGGTAATCCTTTGTTTTCGG
binds: [1]

B2: 3 bp spacer SOX dimer probe (dsDNA)
DNA 1: CGCCGAAAACAAAGGACCTTTGTTTTGCCG
DNA 2: CGGCAAAACAAAGGTCCTTTGTTTTCGGCG
binds: [2]

B3: 2 bp spacer SOX dimer probe (dsDNA)
DNA 1: CGCCGAAAACAAAGGCCTTTGTTTTGCCGC
DNA 2: GCGGCAAAACAAAGGCCTTTGTTTTCGGCG
binds: [1]

B4: 5 bp spacer SOX dimer probe (dsDNA)
DNA 1: GCCGAAAACAAAGGATACCTTTGTTTTGCC
DNA 2: GGCAAAACAAAGGTATCCTTTGTTTTCGGC
binds: [3]

B5: 4 bp spacer SOX dimer probe (dsDNA)
DNA 1: GCCGAAAACAAAGGAACCTTTGTTTTGCCG
DNA 2: CGGCAAAACAAAGGTTCCTTTGTTTTCGGC
not listed: [1] | [2]
binds: all other assays above

B6: 0 bp spacer SOX dimer probe (dsDNA)
DNA 1: CCGCCGTAACAATGCATTGTTGCCGCC
DNA 2: GGCGGCAACAATGCATTGTTACGGCGG
binds: [1]

B7: 1 bp spacer SOX dimer probe (dsDNA)
DNA 1: CCGCCGAACAATGTCATTGTTGCCGCC
DNA 2: GGCGGCAACAATGACATTGTTCGGCGG
binds: [1]
